Laboratory results reported in publication PMC10499536 (Nature, 2022).

Molecular target: the molecule itself
Experiment: cryo-EM structure

B1: truncated mouse mIgM heavy chain lacking the two Fab arms (of IgM BCRΔFab; vector pMS-RL2b) (receptor)
heavy: AEAAAKEAAAKEAAAKAAVAEMNPNVNVFVPPRDGFSGPAPRKSKLICEATNFTPKPITVSWLKDGKLVESGFTTDPVTIENKGSTPQTYKVISTLTISEIDWLNLNVYTCRVDHRGLTFLKNVSSTCAASPSTDILTFTIPPSFADIFLSKSANLTCLVSNLATYETLNISWASQSGEPLETKIKIMESHPNGTFSAKGVASVCVEDWNNRKEFVCTVTHRDLPSPQKKFISKPNEVHKHPPAVYLLPPAREQLNLRESATVTCLVKGFSPADISVQWLQRGQLLPQEKYVTSAPMPEPGAPGFYFTHSILTVTEEEWNSGETYTCVVGHEALPHLVTERTVDKSTEGEVNAEEEGFENLWTTASTFIVLFLLSLFYSTTVTLFKVK
binding result: binds
